This note sets out measurements from patent US20130310310A1.

For experiment [1], the target named is GLP-1 receptor.
In experiment [2] the target is GLP-1 receptor. This is another data set of the same source.

In the experiment with GLP-1 receptor [1], “[Cys^21(mPEG5000-MAL)] Exendin-4 (peptide)” yielded an EC50 (nM), GLP-1 receptor agonistic activity (CRE-luciferase reporter in HEK293 cells) of 22.5 nM.
The substance Exendin-4 (peptide) yielded an EC50, GLP-1 receptor agonistic activity (CRE-luciferase reporter in HEK293 cells) with GLP-1 receptor [2] of 1.93 nM.
